# Values quoted from earlier work in patent US10786531B2, “Mineral salt-sulfonic acid compositions and methods of use” (BMG PHARMA SPA, priority 2009, dated 2020).
# B1: lactoferrin: globular, cationic, non-heme iron-binding protein (protein, UniProt P02788 20-710, looked up)
# Lactotransferrin: GRRRSVQWCAVSQPEATKCFQWQRNMRKVRGPPVSCIKRDSPIQCIQAIAENRADAVTLDGGFIYEAGLAPYKLRPVAAEVYGTERQPRTHYYAVAVVKKGGSFQLNELQGLKSCHTGLRRTAGWNVPIGTLRPFLNWTGPPEPIEAAVARFFSASCVPGADKGQFPNLCRLCAGTGENKCAFSSQEPYFSYSGAFKCLRDGAGDVAFIRESTVFEDLSDEAERDEYELLCPDNTRKPVDKFKDCHLARVPSHAVVARSVNGKEDAIWNLLRQAQEKFGKDKSPKFQLFGSPSGQKDLLFKDSAIGFSRVPPRIDSGLYLGSGYFTAIQNLRKSEEEVAARRARVVWCAVGEQELRKCNQWSGLSEGSVTCSSASTTEDCIALVLKGEADAMSLDGGYVYTAGKCGLVPVLAENYKSQQSSDPDPNCVDRPVEGYLAVAVVRRSDTSLTWNSVKGKKSCHTAVDRTAGWNIPMGLLFNQTGSCKFDEYFSQSCAPGSDPRSNLCALCIGDEQGENKCVPNSNERYYGYTGAFRCLAENAGDVAFVKDVTVLQNTDGNNNEAWAKDLKLADFALLCLDGKRKPVTEARSCHLAMAPNHAVVSRMDKVERLKQVLLHQQAKFGRNGSDCPDKFCLFQSETKNLLFNDNTECLARLHGKTTYEKYLGPQYVAGITNLKKCSTSPLLEACEFLRK
# Details: animal studies
molecule,measurement,value
B1,dose well tolerated with minimum toxic effects,2000 mg/kg/day
